The record followed here is IntAct's records for PubMed 31063459.

First the molecules themselves.
B1: Dynamin-1-like protein (Mus musculus), Q8K1M6-3 (parent)
chain: MEALIPVINKLQDVFNTVGADIIQLPQIVVVGTQSSGKSSVLESLVGRDLLPRGTGVVTRRPLILQLVHVSPEDKRKTTGEENGVEAEEWGKFLHTKNKLYTDFDEIRQEIENETERISGNNKGVSPEPIHLKVFSPNVVNLTLVDLPGMTKVPVGDQPKDIELQIRELILRFISNPNSIILAVTAANTDMATSEALKISREVDPDGRRTLAVITKLDLMDAGTDAMDVLMGRVIPVKLGIIGVVNRSQLDINNKKSVTDSIRDEYAFLQKKYPSLANRNGTKYLARTLNRLLMHHIRDCLPELKTRINVLAAQYQSLLNSYGEPVDDKSATLLQLITKFATEYCNTIEGTAKYIETSELCGGARICYIFHETFGRTLESVDPLGGLNTIDILTAIRNATGPRPALFVPEVSFELLVKRQIKRLEEPSLRCVELVHEEMQRIIQHCSNYSTQELLRFPKLHDAIVEVVTCLLRKRLPVTNEMVHNLVAIELAYINTKHPDFADACGLMNNNIEEQRRNRLARELPSAGSRDKVPSAGGGIGDGGQEPTTGNWRGMLKTSKAEELLAEEKSKPIPIMPASPQKGHAVNLLDVPVPVARKLSAREQRDCEVIERLIKSYFLIVRKNIQDSVPKAVMHFLVNHVKDTLQSELVGQLYKSSLLDDLLTESEDMAQRRKEAADMLKALQGASQIIAEIRETHLW

The assay “arp3_human ACTR3, P61158” covers variants of B1. To be noted: with arp3_human ACTR3, P61158.
The variants in the assay “cof1_human CFL1, P23528” derive from B1. To be noted: with cof1_human CFL1, P23528.
cof1_human CFL1, P23528, sequence (P23528 whole entry): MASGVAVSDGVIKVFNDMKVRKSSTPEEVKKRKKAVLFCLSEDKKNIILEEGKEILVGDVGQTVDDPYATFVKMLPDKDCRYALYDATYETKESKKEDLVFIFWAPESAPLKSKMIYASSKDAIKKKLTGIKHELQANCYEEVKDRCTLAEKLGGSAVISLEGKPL

Consider S600A, for which the “effect of a mutation on the interaction” value in the assay with arp3_human ACTR3, P61158 is on record as “decreasing interaction strength”; with cof1_human CFL1, P23528, “decreasing interaction strength”.
For S600D, the “effect of a mutation on the interaction” value was “increasing interaction strength” with arp3_human ACTR3, P61158 and “increasing interaction strength” in the assay with cof1_human CFL1, P23528.
